Laboratory results published in patent publication US20240263161A1 (UNIVERSITY OF COPENHAGEN, published 2024).

How the values were obtained:
[1] = molecular target: membrane bound MUC1 TR reporter on HEK293 WT cells (core2 O-glycans) (human) (UniProt P15941); assay: cell-based or functional assay
[2] = molecular target: secreted purified MUC1 TR reporter, WT glycoform (core2 sialylated O-glycans, HEK293 WT) (human) (UniProt P15941); assay: cell-based or functional assay
[3] = molecular target: T1, secreted purified MUC5AC TR reporter, WT glycoform (core2 sialylated O-glycans, HEK293 WT) (human, UniProt P98088 2708-2850); assay: microscale thermophoresis (MST), […]
T1 sequence: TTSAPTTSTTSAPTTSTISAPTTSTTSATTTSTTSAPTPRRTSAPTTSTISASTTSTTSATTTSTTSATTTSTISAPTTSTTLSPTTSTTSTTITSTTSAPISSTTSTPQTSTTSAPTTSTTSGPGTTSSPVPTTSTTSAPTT

[4] = molecular target: T2, secreted purified MUC5AC TR reporter, Tn glycoform (human, UniProt P98088 2708-2850); assay: microscale thermophoresis (MST), […]
T2 sequence: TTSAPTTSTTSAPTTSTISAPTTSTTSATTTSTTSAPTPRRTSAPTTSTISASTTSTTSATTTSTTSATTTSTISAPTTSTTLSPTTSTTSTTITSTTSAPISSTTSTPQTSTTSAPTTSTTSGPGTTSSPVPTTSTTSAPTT

[5] = molecular target: secreted purified MUC1 TR reporter, WT glycoform (core2 sialylated O-glycans, HEK293 WT) (human, UniProt P15941 121-260); assay: microscale thermophoresis (MST), […]
secreted purified MUC1 TR reporter, WT glycoform (core2 sialylated O-glycans, HEK293 WT), sequence (P15941 121-260): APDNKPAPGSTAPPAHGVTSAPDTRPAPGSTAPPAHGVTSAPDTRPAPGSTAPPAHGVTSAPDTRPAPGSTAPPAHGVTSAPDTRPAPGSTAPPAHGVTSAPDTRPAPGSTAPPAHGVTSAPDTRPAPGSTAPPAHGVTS

[6] = molecular target: secreted purified MUC21 TR reporter, Tn glycoform (human, UniProt Q5SSG8 130-278); assay: ELISA with purified secreted reporters
secreted purified MUC21 TR reporter, Tn glycoform, sequence (Q5SSG8 130-278): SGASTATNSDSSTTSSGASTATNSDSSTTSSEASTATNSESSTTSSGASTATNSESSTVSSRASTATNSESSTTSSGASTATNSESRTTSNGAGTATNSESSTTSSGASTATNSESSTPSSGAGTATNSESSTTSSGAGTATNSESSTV

membrane bound MUC1 TR reporter on HEK293 WT cells (core2 O-glycans) (human), sequence (P15941 121-260 limits assumed): as the sequence (P15941 121-260) above
secreted purified MUC1 TR reporter, WT glycoform (core2 sialylated O-glycans, HEK293 WT) (human), sequence (P15941 121-260): as above

StcE (Secreted protease of C1 esterase inhibitor) wildtype, recombinant (from UniProt O82882 36-898) (enzyme)
cleavage, dose titration on cells (flow cytometry) [1]: > 10 µg/mL
cleavage, dose titration with the isolated reporter (SDS-PAGE) [2]: > 10 µg/mL

B1: AlexaFluoro647 labelled MBP-X409 (other)
chain: EGCIVSVNSGKRYCLPVGQRSGYSLPDWIVGQEVYVDSGAKAKVLLSDWDNLSYNRIGEFVGNVNPADMKKVKAWNGQYLDFSKPRSMRVVYK
Kd [3]: 14 nM
Kd [4]: 37 nM
Kd [5]: 2600 nM
fold lower binding affinity (against MUC5Ac) [5]: > 1000 fold

B2: X409 module of Escherichia coli O157:H7 StcE (tags of the construct not stated) (other)
chain: EGCIVSVNSGKRYCLPVGQRSGYSLPDWIVGQEVYVDSGAKAKVLLSDWDNLSYNRIGEFVGNVNPADMKKVKAWNGQYLDFSKPRSMRVVYK
binding result [6]: binds
